For assay [1], the system named is glycocalicin, platelet lysate, KG-1 cell lysate, Raji cell lysate. Nature of the assay: Western blot on glycocalicin and cell lysates. In kind it is binding, human. The procedure: Antibodies against GPIbα (CD42b) recognize platelet lysate and glycocalicin and but not KG-1 cell lysate (a Y1 binding positive myeloid cell line) or Raji cell lysate (a B cell line that is negative for Y1 binding at concentrations at which KG-1 cells are positive for Y1 binding). […] (FIG. 20).
The nitrocellulose membrane was blocked using 5% skim milk for one hour at room temperature. The membrane was then washed 3 times for 5 minutes each with 0.05% Tween 20 in PBS at room temperature. The membrane was incubated with 5 μg/ml Y1-biotin (or 181-biotin) in 2% skim milk in PBS for one hour at room temperature. The membrane was then washed 3 times for 5 minutes each with cold 0.05% Tween 20 in PBS in the cold room (about 4 to about 10° C.). The membrane was then incubated in the cold room with a 1:1000 dilution of SAV-HRP (streptavidin-HRP) (at a final concentration of […]) in 2% skim milk, 0.05% Tween. The dilution was carried out at room temperature (about 25° C.), then the diluted SAV-HRP was cooled on ice for 10-15 minutes before use. The incubation was carried out for 1 hour with gentle shaking. After the incubation with SAV-HRP, the membrane was washed, as above. The membrane was then incubated with Super Signal mixture (Pierce) for 5 minutes as directed in the commercial protocol, then excess solution was dried. […]

Assay [2] has as its system platelet GPIbα. Nature of the assay: Western blot/FACS of endoprotease-cleaved platelet GPIbα and glycocalicin. In kind it is binding, human. Particulars: immunoblots and FACS. The text has this: (§1) Immunoblotting and endoprotease cleavage techniques were used to identify the epitope for Y1 on the surface membrane of platelets.
(§2) The enzyme O-Sialoglycoprotein endoprotease from Pasteurella haemolytica (Cedarlan CLE 100) selectively cleaves human platelet GPIb and specifically cleaves only proteins containing sialylated, O-linked glycans. […] This enzyme has been reported to cleave GPIb, which is heavily O-glycosylated, but not GPIIb-IIIa or other receptors on platelets. GPIbα was digested with O-Sialoglycoprotein endoprotease in order to further establish the binding of Y1 to the molecule.
(§3) Mocarhagin [Sigma L4515a] is a cobra venom metalloproteinase that cleaves platelet GPIbα specifically at a single site between residues glu-282 and asp-283, thereby generating two stable products: a ˜45-kDa N-terminal fragment (His1-Glu282), which is released into the supernatant, and a membrane-bound ˜95 kDa C-terminal fragment.
(§4) Cathepsin G (Sigma C4428), a neutrophil serine protease, cleaves glycocalicin at a first cleavage site between residues Leu-275 and Tyr-276 and at a second cleavage site between residues Val-296 and Lys-297. Cathepsin G treatment of glycocalicin generates two N-terminal fragments: a small N-terminal 42 kDa fragment (His1-Leu275), a large N-terminal 45 kDa N-terminal fragment (His1-Val-296), and corresponding ˜95 kDa C-terminal fragments. (FIG. 1).
(§5) For mocarhagin digestion, 10^8 washed platelets in TS buffer (0.01 M Tris, 0.15 M sodium chloride, pH 7.4) containing 1 mM calcium chloride were treated with 12 μg/ml mocarhagin (final concentration) for 1 hour at 22° C. and digestion was stopped by adding EDTA to 0.01 M.
(§6) 10^6 platelets in 0.1 M Tris buffer pH 7.4 containing 0.2% albumin and protease inhibitors (10 μM leupeptin, 0.24 mM PMSF) was incubated with 0.14 mg/ml O-Sialoglycoprotein endoprotease (final concentration) for 45 min at 37° C. and digestion was stopped by adding sample buffer and boiling. The sample buffer used contained 3% SDS, 12% glycerol, 50 mM Tris HCl, 2% β-mercaptoethanol, and 0.03% bromphenol blue.
(§7) For mocarhagin digestion, glycocalicin in TS buffer containing 1 mM calcium chloride was incubated with 10 μg/ml mocarhagin (final concentration) for 1 hour at 22° C. and digestion was stopped by adding EDTA to 0.01 M.
(§8) For cathepsin G digestion, glycocalicin in TS buffer containing 1 mM calcium chloride was incubated with 3.4 μg/ml cathepsin G (final concentration) for 4 hour at 22° C. and digestion was stopped by adding PMSF to 1 mM.

Assay [3] deals with T1, platelet GPIbα (Homo sapiens, UniProt P07359).
T1 construct: endogenous in cells; host or cells: washed human platelets (blood-bank platelet concentrate)
Described as above. In kind it is binding.
Text: as §1, §2, §3, §4, §5, §6, §7, §8

Another assay has as its system primary leukemia cells. Nature of the assay: FACS analysis of binding to primary leukemia cells of patients. On the set-up: species or system human. The procedure: Analysis of binding of scFv Y1 antibodies and anti-CD162 antibodies to diseased cells also illustrates that scFv Y1 has binding characteristics different from those of anti-CD-162 antibodies. […] Table F). Y1 binds to the leukemic cells in 10 of 12 samples. In contrast, anti-CD162 bound only 5 out of 12 samples. […] Thus, it may be concluded that, in leukemic cells, scFv Y1 binds to a ligand other than that recognized by anti-CD162.
Samples provided from hospitals. Patients sample 30 μl/tube. Add 5 μl/tube of CD33-APC (for AML) or CD19-APC (for B-CLL) or CD38-APC (for Multiple Myeloma). Add 5 μl/tube of CD45-PerCp and 5 μl of scFv-Y1 or control scFv-N31 or CD162-PE (KPL1). Incubate tubes 30 minutes at 4° C. with low shaking. Wash by adding 2 ml PBS and spin 5 minutes at 1200 rpm. Discard supernatant.
For a one step assay continue with the lysis step:
Add 500 μl BD Lysine solution diluted 1:10 with ddH2O (300 μl to patient sample). Vortex at high speed and incubate 12 minutes at 4° C. Wash as above. Discard supernatant. And add 500 μl PBS. The samples are read in the FACS using blood sample acquisition setup according to international standards.
For two or more assays: working buffer is PBS+1% BSA+0.05% sodium azide. Incubations and wash as above.
Lysis of the red blood cells is the final step in the assay, followed by resuspension with 500 μl PBS.

These results are taken from patent US20040002450A1, “Y17 - isolated molecules comprising epitopes containing sulfated moieties, antibodies to such epitopes, and uses thereof” (priority 2000, published 2004).

B1: Y1 scFv: fully human scFv clone binding platelets and myelogenous leukemia cells; SEQ ID NO: 25, heavy chain CDR3 SEQ ID NO: 8 (protein, listed as Homo sapiens)
scFv: MKYLLPTAAAGLLLLAAQPAMAEVQLVESGGGVVRPGGSLRLSCAASGFTFDDYGMSWVRQAPGKGLEWVSGINWNGGSTGYADSVKGRFTISRDNAKNSLYLQMNSLRAEDTAVYYCARMRAPVIWGQGTLVTVSRGGGGSGGGGSGGGGSSELTQDPAVSVALGQTVRITCQGDSLRSYYASWYQQKPGQAPVLVIYGKNNRPSGIPDRFSGSSSGNTASLTITGAQAEDEADYYCNSRDSSGNHVVFGGGTKLTVLGAAAEQKLISEEDLNGAA
In the case of B1, the “recognition of glycocalicin, platelet lysate, KG-1 and Raji cell lysate” value in assay [1] was “recognized both glycocalicin, platelet lysate, and KG-1 cells, but not Raji cell extract”. Besides, the “binding to washed platelets after O-Sialoglycoprotein endoprotease” value in the assay with platelet GPIbα [2] is “abolishes binding”. Also, the “binding to cathepsin G fragments of glycocalicin” value in the assay with platelet GPIbα [3] (Western blot) was “bound to the larger N-terminal fragment (His 1-Val-296), but not to the smaller N-terminal fragment (His1-Leu275)”. For the same molecule, in the assay with platelet GPIbα [3] (Western blot of platelet lysates), the “binding after mocarhagin treatment of washed platelets” value is on record as “binding of Y1 to the N-terminal ˜45 kDa tryptic fragment”. In addition, in the assay with primary leukemia cells (12 patient samples, FACS), the “leukemia patient samples whose leukemic cells are bound” value is 10 of 12. Also, the “% Positive” value in the assay with primary leukemia cells (AML patients) is 80%; with primary leukemia cells (B-ALL, Bone Marrow), 33%; with primary leukemia cells (B-CLL, Peripheral Blood) it was 74%; in the assay with primary leukemia cells (B-Leukemia patients) it was 67%; in the assay on primary leukemia cells (B-Lymphoma, Peripheral Blood), 62%; in the assay with primary leukemia cells (Multiple Myeloma patients), 100%. The “% Positive” value in the assay on primary leukemia cells (Pre-B-ALL, Bone Marrow) amounted to 100%. Moreover, the “Number Positive” value in the assay with primary leukemia cells (AML patients) was 60/75; in the assay on primary leukemia cells (B-ALL, Bone Marrow) it was 3/9; in the assay with primary leukemia cells (B-CLL, Peripheral Blood), 17/23; in the assay with primary leukemia cells (B-Leukemia patients) it was 29/43; with primary leukemia cells (B-Lymphoma, Peripheral Blood) it was 5/8; with primary leukemia cells (Multiple Myeloma patients), 16/16. Further, in the assay with primary leukemia cells (Pre-B-ALL, Bone Marrow), the “Number Positive” value is 3/3. Further, the “% Negative” value is listed as 67% in the assay with primary leukemia cells (B-ALL, Bone Marrow); 26% in the assay with primary leukemia cells (B-CLL, Peripheral Blood); 38% in the assay on primary leukemia cells (B-Lymphoma, Peripheral Blood); 0% in the assay on primary leukemia cells (Pre-B-ALL, Bone Marrow).
